The source of these data is PMC11754657.

Assay [1] deals with rabbit skeletal muscle filamentous actin (rabbit) (UniProt P68135).
For assay [2] the target is unchanged. The source holds these as a separate data set.

On to “jordan (p.D1647G) MYO15A motor domain complex M15-2IQ:ELC:RLC (1:1:1) (from UniProt P60661 1-151)”, for which, in assay [1], the velocity of actin filaments in the in vitro gliding filament assay (motor domain held by anti-GFP, 10 mM KCl, 2 mM ATP, 30 °C) was determined as 216 nm/s. In assay [2], the K ATPase: F-actin at half-maximal activation of the steady-state ATPase (NADH-coupled assay, 20 °C, 2 mM MgATP, 50 mM KCl) turned out to be 114 µM and the kcat: extrapolated maximum rate of the F-actin activated steady-state ATPase (NADH-coupled assay, 20 °C) is 0.87 s⁻¹.
With “wild-type MYO15A motor domain complex M15-2IQ:ELC:RLC (1:1:1) (from UniProt P60661 1-151)”, the velocity of actin filaments in the in vitro gliding filament assay (motor domain held by anti-GFP, 10 mM KCl, 2 mM ATP, 30 °C) in assay [1] was determined as 473 nm/s. In assay [2], the K ATPase: F-actin at half-maximal activation of the steady-state ATPase (NADH-coupled assay, 20 °C, 2 mM MgATP, 50 mM KCl) is 29.1 µM and the kcat: extrapolated maximum rate of the F-actin activated steady-state ATPase (NADH-coupled assay, 20 °C) is 5.8 s⁻¹.
